Data published in patent publication US20230295310A1 (ABCELLERA BIOLOGICS, published 2023).
Numbering of substitutions follows the chain as printed.

Biological target: EGFR on HeLa cells (UniProt P00533 25-1210, limits assumed)
Assay: cell-based or functional assay

B1: GOMP001_bsAb_045 (bispecific antibody, human IgG1, kappa, L234A L235A)
heavy 1: QVQLVQSGAEVKKPGASVKVSCKASGYTFTSHWMHWVRKAPGQGLEWIGEFNPSNGRTNYNEEFKSKATMTVDTSTNTAYMELSSLRSEDTAVYYCASRDYDYDGRYFDYWGQGTLVTVSSASTKGPSVFPLAPSSKSTSGGTAALGCLVADYFPEPVTVSWNSGALTSGVHTFPAVLQSSGLYSLSSVVTVPSSSLGTQTYICNVNHKPSNTKVDEKVEPKSCDKTHTCPPCPAPEAAGGPSVFLFPPKPKDTLMISRTPEVTCVVVDVSHEDPEVKFNWYVDGVEVHNAKTKPREEQYNSTYRVVSVLTVLHQDWLNGKEYKCKVSNKALPAPIEKTISKAKGQPREPQVYTLPPSREEMTDNQVSLTCLVKGFYPSDIAVEWESNGQPENNYKTTPPVLMSDGSFFLASKLTVDKSRWQQGNVFSCSVMHEALHNHYTQKSLSLSPG
light 1: RIQMTQSPSSLSASVGDRVTITCSASSSVTYMYWYQDKPGKAPKLLIYDTSNLASGVPSRFSGSGSGTDYTFTISSLQPEDIATYYCQQWSSHIFTFGQGTKVEIKRTVAAPSVFIFPPSDKQLKSGTARVVCLLNNFYPREAKVQWKVDNALQSGNSQESVTEQDSKDSTYSLSSTLTLSKADYEKHKVYACEVTHQGLSSPVTKSFNRGEC
heavy 2: EVQLVESGGGLVQPGRSLRLSCATSGFTFADYTMHWVRYAPGKGLEWVSGISWNSGSIDYADRVKGRFTISRDNAKKSLYLQMNSLRAEDTALYFCAKDSSGYGHYYFYYLDVWGRGTTVTVSSASTKGPSVFPLAPSSKSTSGGTAALGCLVKDYFPEPVTVSWNSGALTSGVHTFPAVLQSSGLYSLSSVVTVPSSSLGTQTYICNVNHKPSNTKVDKKVEPKSCDKTHTCPPCPAPEAAGGPSVFLFPPKPKDTLMISRTPEVTCVVVDVSHEDPEVKFNWYVDGVEVHNAKTKPREEQYNSTYRVVSVLTVLHQDWLNGKEYKCKVSNKALPAPIEKTISKAKGQPRRPRVYTLPPSREEMTKNQVSLVCLVKGFYPSDIAVEWESNGQPENNYKTTPPVLDSDGSFFLYSVLTVDKSRWQQGNVFSCSVMHEALHNHYTQKSLSLSPG
light 2: not shown
  Max killing %: 69.5%
  X… HeLa EC50: 0.179 nM

B2: GOMP001_bsAb_046 (bispecific antibody, human IgG1, kappa, L234A L235A)
heavy 1: EVQLVESGGGLVQPGRSLRLSCATSGFTFADYTMHWVRKAPGKGLEWVSGISWNSGSIDYADEVKGRFTISRDNAKKSLYLQMNSLRAEDTALYFCAKDSSGYGHYYFYYLDVWGKGTTVTVSSASTKGPSVFPLAPSSKSTSGGTAALGCLVADYFPEPVTVSWNSGALTSGVHTFPAVLQSSGLYSLSSVVTVPSSSLGTQTYICNVNHKPSNTKVDEKVEPKSCDKTHTCPPCPAPEAAGGPSVFLFPPKPKDTLMISRTPEVTCVVVDVSHEDPEVKFNWYVDGVEVHNAKTKPREEQYNSTYRVVSVLTVLHQDWLNGKEYKCKVSNKALPAPIEKTISKAKGQPREPQVYTLPPSREEMTDNQVSLTCLVKGFYPSDIAVEWESNGQPENNYKTTPPVLMSDGSFFLASKLTVDKSRWQQGNVFSCSVMHEALHNHYTQKSLSLSPG
light 1: not shown
heavy 2: QVQLVQSGAEVKKPGASVKVSCKASGYTFTSHWMHWVRYAPGQGLEWIGEFNPSNGRTNYNEKFKSKATMTVDTSTNTAYMELSSLRSEDTAVYYCASRDYDYDGRYFDYWGRGTLVTVSSASTKGPSVFPLAPSSKSTSGGTAALGCLVKDYFPEPVTVSWNSGALTSGVHTFPAVLQSSGLYSLSSVVTVPSSSLGTQTYICNVNHKPSNTKVDKKVEPKSCDKTHTCPPCPAPEAAGGPSVFLFPPKPKDTLMISRTPEVTCVVVDVSHEDPEVKFNWYVDGVEVHNAKTKPREEQYNSTYRVVSVLTVLHQDWLNGKEYKCKVSNKALPAPIEKTISKAKGQPRRPRVYTLPPSREEMTKNQVSLVCLVKGFYPSDIAVEWESNGQPENNYKTTPPVLDSDGSFFLYSVLTVDKSRWQQGNVFSCSVMHEALHNHYTQKSLSLSPG
light 2: B1 light 1 with R1D, D37R, K41D, K122E, R130S
  Max killing %: 92.6%
  X… HeLa EC50: 0.0264 nM
